T1: EBV latent membrane protein LMP2 (wild-type epitope, LSK; as in SEQ ID NO: 27) peptide on HLA-A*11:01 (human)
T1 peptide: SSCSSCPLSK

T2: EBV latent membrane protein LMP2 (mutant-type epitope, LTK; as in SEQ ID NO: 28) peptide on HLA-A*11:01 (human)
T2 peptide: SSCSSCPLTK

B1: E315 (TCR, V domains shown)
Valpha: KQEVTQIPAALSVPEGENLVLNCSFTDSAIYNLQWFRQDPGKGLTSLLLIQSSQREQTSGRLNASLDKSSGRSTLYIAASQPGDSATYLCAGKTSYDKVIFGPGTSLSVIP
Vbeta: EAGVAQSPRYKIIEKRQSVAFWCNPISGHATLYWYQQILGQGPKLLIQFQNNGVVDDSQLPKDRFSAERLKGVDSTLKIQPAKLEDSAVYLCASSVFPTSVEQYFGPGTRLTVT
B2: E318 (TCR, V domains shown)
Valpha: GENVEQHPSTLSVQEGDSAVIKCTYSDSASNYFPWYKQELGKRPQLIIDIRSNVGEKKDQRIAVTLNKTAKHFSLHITETQPEDSAVYFCAASNRDDKIIFGKGTRLHILP
Vbeta: DAGVIQSPRHEVTEMGQEVTLRCKPISGHNSLFWYRQTMMRGLELLIYFNNNVPIDDSGMPEDRFSAKMPNASFSTLKIQPSEPRDSAVYFCASSLGAGHLWGYTFGSGTRLTVV
B3: E149 (TCR, V domains shown)
Valpha: GIQVEQSPPDLILQEGANSTLRCNFSDSVNNLQWFHQNPWGQLINLFYIPSGTKQNGRLSATTVATERYSLLYISSSQTTDSGVYFCAVVDNNDMRFGAGTRLTVKP
Vbeta: DTEVTQTPKHLVMGMTNKKSLKCEQHMGHRAMYWYKQKAKKPPELMFVYSYEKLSINESVPSRFSPECPNSSLLNLHLHALQPEDSALYLCASSPGRWYEQFFGPGTRLTVL
B4: E316 (TCR, V domains shown)
Valpha: AQKITQTQPGMFVQEKEAVTLDCTYDTSDQSYGLFWYKQPSSGEMIFLIYQGSYDEQNATEGRYSLNFQKARKSANLVISASQLGDSAMYFCAMVSGAGGGADGLTFGKGTHLIIQP
Vbeta: DGGITQSPKYLFRKEGQNVTLSCEQNLNHDAMYWYRQDPGQGLRLIYYSQIVNDFQKGDIAEGYSVSREKKESFPLTVTSAQKNPTAFYLCASSIGVGLSNTEAFFGQGTRLTVV

Columns and labels:
[1] = molecular target: T1, EBV latent membrane protein LMP2 …; assay: multimer staining
[2] = molecular target: T2, EBV latent membrane protein LMP2 …; assay: multimer staining

Row | Binder | binding result [1] | binding result [2]
1 | B1 | recognises | recognises
2 | B2 | recognises | recognises
3 | B3 | recognises | recognises
4 | B4 | recognises | recognises

— patent US20230181639A1 (published 2023)
